Source: the supplement of paper PMC7877785
± gives the uncertainty stated by the source.

Test: self-splicing fitness, log relative to wild type (ln ratio); higher = more splicing; Tetrahymena group I intron in knt gene, E. coli kanamycin selection, DiMSum; sequences stand for … in CUCUCU…GGAGGGAAAAGUUAUCAGGCAUGCACCUGGUAGCUAGUCUUUAAACCAAUAGAUUGCAUCGGUUUAAAAGGCAAGACCGUCAAAUUGCGGGAAAGGGGUCAACAGCCGUUCAGUACCAAGUCUCAGGGGAAACUUUGAGAUGGCCUUGCAAAGGGUAUGGUAAUAAGCUGACGGACAUGGUCCUAACCACGCAGCCAAGUCCUAAGUCAACAGAUCUUCUGUUGAUAUGGAUGCAGUUCACAGACUAAAUGUCGGUCGGGGAAGAUGUAUUCUUCUCAUAAGAUAUAGUCGGACCUCUCCUUAAUGGGAGCUAGCGGAUGAAGUGAUGCAACACUGGAGCCGCUGGGAACUAAUUUGUAUGCGAAAGUAUAUUGAUUAGUUUUGGAGUACUCGUGGUCG
How it was run: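 Pooled colonies went to amplicon sequencing on an Illumina HiSeq 2500 after six replicate transformations. The plates were LB agar with 100 μg/mL carbenicillin, 50 μM IPTG and 0.2% rhamnose, with or without 25 μg/mL kanamycin, incubated overnight at 37°C or 30°C. The E. coli BL21(DE3) library had all eight P1ex-region intron nucleotides randomised, the intron placed in the knt kanamycin-resistance gene on pET-22b(+). DiMSum fitness is the error-weighted combination of replicate fold changes, kanamycin against none, normalised to wild type.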

Sequence	self-splicing fitness (ln) (30 °C)	self-splicing fitness (ln) (37 °C)
UAUAAGCAAUAUUACGAGGG	-3.42 ± 0.3	
UAUAAGCAAUAUUACGAGGU	-3.53 ± 0.23	-2.54 ± 0.23
UAUAAGCAAUAUUACGAUUA	-0.327 ± 0.073	0.291 ± 0.098
UAUAAGCAAUAUUACGAUUC	-2.68 ± 0.15	-1.57 ± 0.32
UAUAAGCAAUAUUACGCAAC	-3.03 ± 0.4	
UAUAAGCAAUAUUACGCACA	-0.168 ± 0.085	-0.211 ± 0.11
UAUAAGCAAUAUUACGCACG	-0.779 ± 0.16	-0.566 ± 0.17
UAUAAGCAAUAUUACGCGGA	-2.14 ± 0.18	-0.954 ± 0.16
UAUAAGCAAUAUUACGCGGU	-3.64 ± 0.26	-3.54 ± 0.34
UAUAAGCAAUAUUACGCUAC	-3.61 ± 0.21	-1.32 ± 0.17
UAUAAGCAAUAUUACGCUAG	-2 ± 0.18	-0.688 ± 0.23
UAUAAGCAAUAUUACGGAAG	-2.72 ± 0.18	-2.05 ± 0.18
UAUAAGCAAUAUUACGGAGG	-2.6 ± 0.28	-1.67 ± 0.19
UAUAAGCAAUAUUACGGCAC	-1.53 ± 0.17	-0.422 ± 0.23
UAUAAGCAAUAUUACGGCAG	-0.0494 ± 0.099	-0.0977 ± 0.14
UAUAAGCAAUAUUACGGGAU	-3.79 ± 0.32	-2.86 ± 0.19
UAUAAGCAAUAUUACGGUAU	-3.16 ± 0.16	-2.25 ± 0.17
UAUAAGCAAUAUUACGUAAA	-2.23 ± 0.12	-0.632 ± 0.14
UAUAAGCAAUAUUACGUACC	-2.51 ± 0.19	-1.2 ± 0.16
UAUAAGCAAUAUUACGUCCG	-0.775 ± 0.11	-0.223 ± 0.15
UAUAAGCAAUAUUACGUGUC	-3.33 ± 0.25	-1.5 ± 0.34
UAUAAGCAAUAUUACGUGUU	-3.24 ± 0.17	-2.22 ± 0.22
UAUAAGCAAUAUUACGUUCA	-0.586 ± 0.09	-0.352 ± 0.14
UAUAAGCAAUAUUACGUUCC	-1.83 ± 0.31	
UAUAAGCAAUAUUACGUUUC	-3.5 ± 0.38	-2.43 ± 0.35

Sequence	self-splicing fitness (ln) (30 °C)	self-splicing fitness (ln) (37 °C)
UAUCAGCAAUAUUACGAAAA	-0.436 ± 0.13	-0.123 ± 0.17
UAUCAGCAAUAUUACGAAUC	-3.49 ± 0.26	-0.458 ± 0.14
UAUCAGCAAUAUUACGACGG	-0.775 ± 0.098	0.242 ± 0.13
UAUCAGCAAUAUUACGAGCU	-2.71 ± 0.28	-1.35 ± 0.21
UAUCAGCAAUAUUACGAGUU	-2.58 ± 0.1	-0.829 ± 0.089
UAUCAGCAAUAUUACGAUCG	-0.364 ± 0.095	0.612 ± 0.14
UAUCAGCAAUAUUACGCAGU	-2.62 ± 0.13	-0.577 ± 0.11
UAUCAGCAAUAUUACGCCAC	-3.63 ± 0.48	
UAUCAGCAAUAUUACGCCCU	-0.754 ± 0.11	-0.333 ± 0.14
UAUCAGCAAUAUUACGCGAA	-0.515 ± 0.12	-0.291 ± 0.15
UAUCAGCAAUAUUACGCUAG	-0.545 ± 0.1	-0.149 ± 0.12
UAUCAGCAAUAUUACGCUGU	-3.25 ± 0.2	-2.16 ± 0.15
UAUCAGCAAUAUUACGGAAG	-0.901 ± 0.1	-0.651 ± 0.12
UAUCAGCAAUAUUACGGACU	-0.533 ± 0.058	-0.127 ± 0.071
UAUCAGCAAUAUUACGGUGG	-1.2 ± 0.077	-0.377 ± 0.088
UAUCAGCAAUAUUACGUACG	-0.641 ± 0.087	0.404 ± 0.11
UAUCAGCAAUAUUACGUCAG	-1.42 ± 0.093	-0.143 ± 0.11
UAUCAGCAAUAUUACGUCCA	-0.388 ± 0.12	-0.0388 ± 0.13
UAUCAGCAAUAUUACGUGGC	-4.28 ± 0.36	-2.41 ± 0.27
UAUCAGCAAUAUUACGUUGU	-3.84 ± 0.19	-2.62 ± 0.21
UAUCAGCAAUAUUACGUUUA	-0.174 ± 0.055	-0.0219 ± 0.069
UAUGAGCAAUAUUACGACGC		-1.38 ± 0.32
UAUGAGCAAUAUUACGACGG	-2.02 ± 0.13	-1.83 ± 0.19
UAUGAGCAAUAUUACGAGCG	-1.32 ± 0.12	-1.26 ± 0.16
